Literature values, collected in US20230146896A1, “COMPOSITION AND METHOD FOR TREATING ALZHEIMER'S DISEASE” (Eisai R&D Management Co., Ltd., priority 2016, published 2023).

Settings: previous studies, intravenous infusion; typically occurred on the first infusion

B1: BAN2401: humanized IgG1 monoclonal version of mAb158; heavy chain variable SEQ ID NO:1, light chain variable SEQ ID NO:2 (antibody, V domains shown)
VH: EVQLVESGGGLVQPGGSLRLSCSASGFTFSSFGMHWVRQAPGKGLEWVAYISSGSSTIYYGDTVKGRFTISRDNAKNSLFLQMSSLRAEDTAVYYCAREGGYYYGRSYYTMDYWGQGTTVTVSS
VL: DVVMTQSPLSLPVTPGAPASISCRSSQSIVHSNGNTYLEWYLQKPGQSPKLLIYKVSNRFSGVPDRFSGSGSGTDFTLRISRVEAEDVGIYYCFQGSHVPPTFGPGTKLEIK
adverse events (infusion reactions): infusion reactions were common AEs
